Results published in paper PMC8276798, “High-Level Production of Lysine in the Yeast Saccharomyces cerevisiae by Rational Design of Homocitrate Synthase” (Applied and Environmental Microbiology, 2021).
Changes are numbered by the printed parent chain. In names and notes the source's numbering stands.

Key:
[1] = target: T1, homocitrate synthase ScLys20 S385F variant (Saccharomyces cerevisiae, UniProt P48570, S385F); experiment: DCPIP-coupled HCS activity assay with purified enzyme ([…] 2-OG, […] AcCoA); assay type: biochemical
T1 construct: gene LYS20; N-terminal His-tagged recombinant ScLys20
T1 sequence (P48570 1-428 S385F): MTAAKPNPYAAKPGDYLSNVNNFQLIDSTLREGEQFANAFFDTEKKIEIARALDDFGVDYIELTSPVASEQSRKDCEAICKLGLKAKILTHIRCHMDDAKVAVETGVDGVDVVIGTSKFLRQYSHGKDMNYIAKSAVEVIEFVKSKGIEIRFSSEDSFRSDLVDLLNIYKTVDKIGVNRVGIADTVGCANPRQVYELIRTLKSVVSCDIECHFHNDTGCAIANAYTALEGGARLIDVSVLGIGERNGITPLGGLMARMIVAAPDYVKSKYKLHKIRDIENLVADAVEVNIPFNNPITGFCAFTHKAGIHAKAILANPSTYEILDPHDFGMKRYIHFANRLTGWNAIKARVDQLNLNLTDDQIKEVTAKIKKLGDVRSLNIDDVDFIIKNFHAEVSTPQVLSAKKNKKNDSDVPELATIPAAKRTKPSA

[2] = target: T2, homocitrate synthase ScLys20 S385E variant (Saccharomyces cerevisiae, UniProt P48570, S385E); experiment: as above; assay type: biochemical
T2 construct: gene LYS20; N-terminal His-tagged recombinant ScLys20
T2 sequence (P48570 1-428 S385E): T1 sequence (P48570 1-428 S385F) with F385E

[3] = target: T3, homocitrate synthase ScLys20 (wild type) (Saccharomyces cerevisiae, UniProt P48570); experiment: as above; assay type: biochemical
T3 construct: gene LYS20; N-terminal His-tagged recombinant ScLys20
T3 sequence (P48570 1-428): T1 sequence (P48570 1-428 S385F) with F385S

[4] = substrate: CC(=O)SCCNC(=O)CCNC(=O)[C@H](O)C(C)(C)COP(=O)(O)OP(=O)(O)OC[C@H]1O[C@@H](n2cnc3c(N)ncnc32)[C@H](O)[C@@H]1OP(=O)(O)O; experiment: steady-state kinetics of purified enzyme, DCPIP assay (apparent Km); assay type: biochemical, Saccharomyces cerevisiae
purified protein = substrate: O=C(O)CCC(=O)C(=O)O; experiment: purified protein; conditions: active center
[5] = Arg31 interacts with 2-OG (homology model)

Molecule: NCCCC[C@H](N)C(=O)O [lysine]
- IC50 [1]: 2000 ± 680 µM
- IC50 [2]: 3200 ± 610 µM
- IC50 [3]: 1000 ± 140 µM

B1: homocitrate synthase ScLys20 (wild type) (Saccharomyces cerevisiae S288C) (protein)
chain: T1 sequence (P48570 1-428 S385F) with F385S
notes: N-terminal His-tagged recombinant ScLys20
- Km [4]: 24.2 ± 4.21 µM
- kcat [4]: 0.269 ± 0.014 s⁻¹
- kcat/Km [4]: 11100 M⁻¹ s⁻¹
- Km (purified protein; [5]): 4600 ± 1260 µM
- kcat (purified protein; [5]): 0.287 s⁻¹
- kcat/Km (purified protein; [5]): 62.5 M⁻¹ s⁻¹

B2: homocitrate synthase ScLys20 S385E variant (Saccharomyces cerevisiae S288C; S385E) (protein)
chain: T1 sequence (P48570 1-428 S385F) with F385E
notes: as for B1
- Km [4]: 16.1 ± 1.62 µM
- kcat [4]: 0.241 ± 0.0065 s⁻¹
- kcat/Km [4]: 14900 M⁻¹ s⁻¹
- Km (purified protein): 3110 ± 530 µM
- kcat (purified protein): 0.468 s⁻¹
- kcat/Km (purified protein): 150 M⁻¹ s⁻¹

B3: homocitrate synthase ScLys20 S385F variant (Saccharomyces cerevisiae S288C; S385F) (protein)
chain: T1 sequence (P48570 1-428 S385F)
notes: as for B1
- Km [4]: 22.8 ± 4.88 µM
- kcat [4]: 0.373 ± 0.023 s⁻¹
- kcat/Km [4]: 16400 M⁻¹ s⁻¹
- Km (purified protein): 1990 ± 450 µM
- kcat (purified protein): 0.483 s⁻¹
- kcat/Km (purified protein): 243 M⁻¹ s⁻¹

B4: homocitrate synthase ScLys20 S385L variant (Saccharomyces cerevisiae S288C; S385L) (protein)
chain: T1 sequence (P48570 1-428 S385F) with F385L
- Km (purified protein): 9500 ± 1990 µM
- kcat (purified protein): 0.436 s⁻¹
- kcat/Km (purified protein): 46 M⁻¹ s⁻¹
